Assay results: article PMC12711577
Values belong to the molecule of their own block, whether it stands above or below them.

Assays:
[1] = molecular target: DDM1 N terminus (1–148) (Arabidopsis thaliana) (UniProt Q9XFH4); assay: pull-down; in vitro pulldown of recombinant CDCA7α N terminus (1-136) with DDM1 N terminus (1-148); blots quantified, averages of nine (CDCA7α mutations) and five (DDM1 mutations) replicates
[2] = molecular target: DDM1 N terminus (1–148) with K102E and K120E (Arabidopsis thaliana) (UniProt Q9XFH4); assay: as above
[3] = molecular target: T1, CDCA7α N terminus (1–136); assay: pull-down (GST pulldown, anti-His western blot, quantified); conditions: chain shown with the change; n = 5 pulldown replicates; parent: est. 98; read off a plot
T1 chain: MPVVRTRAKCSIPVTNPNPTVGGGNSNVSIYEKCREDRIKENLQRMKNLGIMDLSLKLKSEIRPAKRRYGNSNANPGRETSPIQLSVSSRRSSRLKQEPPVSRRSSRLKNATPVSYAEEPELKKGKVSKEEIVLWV

binding relative to the WT [1]: 50 % of the WT
Molecule: CDCA7α N terminus (1–136) with E32K, E41K, E61K and I62A (domain or fragment)

loss of binding relative to the WT [2]: 50 % loss
Molecule: CDCA7α N terminus (1–136) (domain or fragment)

response [3]: 4
B1: DDM1 N terminus (1–148), Q9XFH4 K102E; K120E; F116A; I124A (protein)
chain: MVSLRSRKVIPASEMVSDGKTEKDASGDSPTSVLNEEENCEEKSVTVVEEEILLAKNGDSSLISEAMAQEEEQLLKLREDEEKANNAGSAVAPNLNETQFTELDELLTQTQLYSEALLEEMEDATINGIESESQKAEPEKTGRGRKRK
